Laboratory results taken from patent US20220040297A1.

Tests used:
[1] = target: CD3ε homodimer protein (human) (UniProt P07766); experiment: SPR, CD3e immobilized
[2] = target: CD3ε homodimer protein (human) (UniProt P07766); experiment: SPR, immobilized CD3ε homodimer
[3] = target: CD3ε homodimer protein (human) (UniProt P07766); experiment: SPR, CD3ε homodimer on chip

Chain of CD3ε homodimer protein (human) (P07766 23-126 limits assumed): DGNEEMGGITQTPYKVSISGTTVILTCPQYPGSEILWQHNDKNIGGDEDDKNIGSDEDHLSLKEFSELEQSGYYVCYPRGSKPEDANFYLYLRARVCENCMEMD

| Binder | KD ratio to GLS3000 [1] | ratio of amounts bound (vs GLS3000) [2] | ratio of amounts bound vs CE115HA000 [3] |
| --- | --- | --- | --- |
| CE115HA000 V95E (antibody, name in Kabat numbering, V domains shown) VH: QVQLVESGGGVVQPGRSLRLSCAASGFTFSNAWMHWVRQAPGKGLEWVAQIKAKSNNYATYYAESVKGRFTISRDDSKNSLYLQMNSLKTEDTAVYYCRYEHYGAYYGVDAWGQGTTVTVSS VL: DIVMTQSPLSLPVTPGEPASISCRSSQSLVHSNRNTYLHWYQQKPGQAPRLLIYKVSNRFSGVPDRFSGSGSGTDFTLKISRVEAEDVGVYYCGQGTQVPYTFGQGTKLEIK | – | – | 9.24 |
| CE115HA000 Y97R (antibody, name in Kabat numbering, V domains shown) VH: QVQLVESGGGVVQPGRSLRLSCAASGFTFSNAWMHWVRQAPGKGLEWVAQIKAKSNNYATYYAESVKGRFTISRDDSKNSLYLQMNSLKTEDTAVYYCRYVHRGAYYGVDAWGQGTTVTVSS VL: DIVMTQSPLSLPVTPGEPASISCRSSQSLVHSNRNTYLHWYQQKPGQAPRLLIYKVSNRFSGVPDRFSGSGSGTDFTLKISRVEAEDVGVYYCGQGTQVPYTFGQGTKLEIK | – | – | 9.27 |
| CE115HA000 D101R (antibody, name in Kabat numbering, V domains shown) VH: QVQLVESGGGVVQPGRSLRLSCAASGFTFSNAWMHWVRQAPGKGLEWVAQIKAKSNNYATYYAESVKGRFTISRDDSKNSLYLQMNSLKTEDTAVYYCRYVHYGAYYGVRAWGQGTTVTVSS VL: DIVMTQSPLSLPVTPGEPASISCRSSQSLVHSNRNTYLHWYQQKPGQAPRLLIYKVSNRFSGVPDRFSGSGSGTDFTLKISRVEAEDVGVYYCGQGTQVPYTFGQGTKLEIK | – | – | 9.24 |
| CE115HA000 Y97S (antibody, name in Kabat numbering, V domains shown) VH: QVQLVESGGGVVQPGRSLRLSCAASGFTFSNAWMHWVRQAPGKGLEWVAQIKAKSNNYATYYAESVKGRFTISRDDSKNSLYLQMNSLKTEDTAVYYCRYVHSGAYYGVDAWGQGTTVTVSS VL: DIVMTQSPLSLPVTPGEPASISCRSSQSLVHSNRNTYLHWYQQKPGQAPRLLIYKVSNRFSGVPDRFSGSGSGTDFTLKISRVEAEDVGVYYCGQGTQVPYTFGQGTKLEIK | – | – | 9.28 |

Second part, the binder after the results:

| KD ratio to GLS3000 [1] | ratio of amounts bound (vs GLS3000) [2] | ratio of amounts bound vs CE115HA000 [3] | Binder |
| --- | --- | --- | --- |
| 3.43 | 0.03 | – | GLS3000 H27dM (antibody, IgG1, name in Kabat numbering, V domains shown) VH: QVQLVESGGGVVQPGRSLRLSCAASGFTFSNAWMHWVRQAPGKGLEWVAQIKAKSNNYATYYAESVKGRFTISRDDSKNSLYLQMNSLKTEDTAVYYCRYVHYGAYYGVDAWGQGTTVTVSS VL: DIVMTQSPLSLPVTPGEPASISCRSSQSLVMSNRNTYLHWYQQKPGQAPRLLIYKVSNRFSGVPDRFSGSGSGTDFTLKISRVEAEDVGVYYCGQGTQVPYTFGQGTKLEIK |
| 13600 | – | – | GLS3000 H27dD (antibody, IgG1, name in Kabat numbering, V domains shown) VH: QVQLVESGGGVVQPGRSLRLSCAASGFTFSNAWMHWVRQAPGKGLEWVAQIKAKSNNYATYYAESVKGRFTISRDDSKNSLYLQMNSLKTEDTAVYYCRYVHYGAYYGVDAWGQGTTVTVSS VL: DIVMTQSPLSLPVTPGEPASISCRSSQSLVDSNRNTYLHWYQQKPGQAPRLLIYKVSNRFSGVPDRFSGSGSGTDFTLKISRVEAEDVGVYYCGQGTQVPYTFGQGTKLEIK |
